Laboratory results taken from PMC11988671, “SIRT7 Is a Lysine Deacylase with a Preference for Depropionylation and Demyristoylation” (International Journal of Molecular Sciences, 2025).
Where “and” joins values, the source holds several entries; their conditions need not be identical. Equal values may be shown once.

Tests used:
[1] = substrate: NC(=O)c1ccc[n+]([C@@H]2O[C@H](COP(=O)([O-])OP(=O)(O)OC[C@H]3O[C@@H](n4cnc5c(N)ncnc54)[C@H](O)[C@@H]3O)[C@@H](O)[C@H]2O)c1; experiment: Enzyme kinetics with variable NAD^+ (in vitro deacylation, Michaelis-Menten), SIRT7 in presence of RNA; format: biochemical, mouse; settings: for Km: in the presence of RNA; for kcat: NAD^+-dependent deacylation
Description: (§1) In the case of the SIRT1 enzymatic reaction, 8 µM peptide was incubated in 50 µL reaction buffer containing 10 mM NaCl, 10 mM KCl, 20 mM Tris-HCl pH 8.0, 1.0 mM NAD^+, and 1 mM DTT, with or without 1 µg recombinant SIRT1. The reaction mixtures were incubated for 24 h for SIRT7 or 2 h for SIRT1 at 37 °C.
(§2) For enzyme kinetics with variable concentrations of the NAD^+ substrate, an in vitro deacylation assay was performed using wild-type SIRT7 and SIRT1 with serial dilutions of the NAD^+ substrate. The reaction was incubated at 37 °C for the appropriate time, which was within the linear part of the progression curve (60 min for SIRT7 and 10 min for SIRT1). […] Each enzymatic assay was conducted in triplicate, and the resulting data were plotted and fitted to the Michaelis–Menten equation using GraphPad Prism version 8.0.2 (GraphPad Software, Boston, MA, USA).
(§3) The general conditions for electrospray ionization-MS were as follows: nebulizer gas, N2, delivered at 50 psi; nebulizer gas temperature, 250 °C; capillary voltage, 3500 V; and collision gas, G1 grade N2 (Taiyo Nippon Sanso Corporation, Tokyo, Japan).

[2] = substrate: NC(=O)c1ccc[n+]([C@@H]2O[C@H](COP(=O)([O-])OP(=O)(O)OC[C@H]3O[C@@H](n4cnc5c(N)ncnc54)[C@H](O)[C@@H]3O)[C@@H](O)[C@H]2O)c1; experiment: Enzyme kinetics with variable NAD^+ (in vitro deacetylation, Michaelis-Menten), SIRT1; format: biochemical, mouse; settings: other: SIRT1 with the H3K9Ac peptide
Description: as §1, §2, §3

B1: SIRT7 (Mus musculus) (protein)
chain: MAAGGGLSRSERKAAERVRRLREEQQRERLRQVSRILRKAAAERSAEEGRLLAESEDLVTELQGRSRRREGLKRRQEEVCDDPEELRRKVRELAGAVRSARHLVVYTGAGISTAASIPDYRGPNGVWTLLQKGRPVSAADLSEAEPTLTHMSITRLHEQKLVQHVVSQNCDGLHLRSGLPRTAISELHGNMYIEVCTSCIPNREYVRVFDVTERTALHRHLTGRTCHKCGTQLRDTIVHFGERGTLGQPLNWEAATEAASKADTILCLGSSLKVLKKYPRLWCMTKPPSRRPKLYIVNLQWTPKDDWAALKLHGKCDDVMQLLMNELGLEIPVYNRWQDPIFSLATPLRAGEEGSHSRKSLCRSREEAPPGDQSDPLASAPPILGGWFGRGCAKRAKRKKVA
notes: HaloTag (N, cleaved yes); made in house; host or cells: E. coli K12 KRX
B1 gave a kcat/Km ([1]; other: acetyl H3K18 peptide) of 0.844 ± 0.024 M⁻¹ s⁻¹, a Km ([1]; other: acetyl H3K18 peptide (H3K18Ac)) of 445.3 ± 28.5 µM and a kcat ([1]; other: acetyl H3K18 peptide) of 0.000376 ± 1.52e-05 s⁻¹. The kcat/Km ([1]; other: butyryl H3K18 peptide) was 2.10 ± 0.061 M⁻¹ s⁻¹, the kcat ([1]; other: butyryl H3K18 peptide) was 0.00143 ± 0.00015 s⁻¹ and the Km ([1]; other: butyryl H3K18 peptide) was 678.6 ± 83.6 µM. For the same protein, the kcat/Km ([1]; other: myristoyl H3K18 peptide) was 11.9 ± 0.695 M⁻¹ s⁻¹, the kcat ([1]; other: myristoyl H3K18 peptide) was 0.00183 ± 8.23e-05 s⁻¹ and the Km ([1]; other: myristoyl H3K18 peptide) was 153 µM and 153.2 ± 8.8 µM. For the same protein, the kcat/Km ([1]; other: octanoyl H3K18 peptide) was 3.74 ± 0.124 M⁻¹ s⁻¹, the kcat ([1]; other: octanoyl H3K18 peptide) was 0.00176 ± 6.48e-05 s⁻¹ and the Km ([1]; other: octanoyl H3K18 peptide) was 470.0 ± 16.7 µM. The kcat/Km ([1]; other: palmitoyl H3K18 peptide) was 2.35 ± 0.224 M⁻¹ s⁻¹, the kcat ([1]; other: palmitoyl H3K18 peptide) was 0.00149 ± 0.000101 s⁻¹ and the Km ([1]; other: palmitoyl H3K18 peptide) was 633 µM and 633.5 ± 37.5 µM. For the same protein, the kcat/Km ([1]; other: propionyl H3K18 peptide) was 10.9 ± 0.633 M⁻¹ s⁻¹, the kcat ([1]; other: propionyl H3K18 peptide) was 0.00202 ± 4.14e-05 s⁻¹ and the Km ([1]; other: propionyl H3K18 peptide) was 185.1 ± 7.6 µM. The kcat/Km ([1]; other: succinyl H3K18 peptide) was 2.01 ± 0.390 M⁻¹ s⁻¹, the kcat ([1]; other: succinyl H3K18 peptide) was 0.000224 ± 1.68e-05 s⁻¹ and the Km ([1]; other: succinyl H3K18 peptide) was 114 µM and 114.9 ± 30.4 µM.

B2: SIRT1 (Mus musculus) (protein)
chain: MADEVALALQAAGSPSAAAAMEAASQPADEPLRKRPRRDGPGLGRSPGEPSAAVAPAAAGCEAASAAAPAALWREAAGAAASAEREAPATAVAGDGDNGSGLRREPRAADDFDDDEGEEEDEAAAAAAAAAIGYRDNLLLTDGLLTNGFHSCESDDDDRTSHASSSDWTPRPRIGPYTFVQQHLMIGTDPRTILKDLLPETIPPPELDDMTLWQIVINILSEPPKRKKRKDINTIEDAVKLLQECKKIIVLTGAGVSVSCGIPDFRSRDGIYARLAVDFPDLPDPQAMFDIEYFRKDPRPFFKFAKEIYPGQFQPSLCHKFIALSDKEGKLLRNYTQNIDTLEQVAGIQRILQCHGSFATASCLICKYKVDCEAVRGDIFNQVVPRCPRCPADEPLAIMKPEIVFFGENLPEQFHRAMKYDKDEVDLLIVIGSSLKVRPVALIPSSIPHEVPQILINREPLPHLHFDVELLGDCDVIINELCHRLGGEYAKLCCNPVKLSEITEKPPRPQKELVHLSELPPTPLHISEDSSSPERTVPQDSSVIATLVDQATNNNVNDLEVSESSCVEEKPQEVQTSRNVENINVENPDFKAVGSSTADKNERTSVAETVRKCWPNRLAKEQISKRLEGNQYLFVPPNRYIFHGAEVYSDSEDDVLSSSSCGSNSDSGTCQSPSLEEPLEDESEIEEFYNGLEDDTERPECAGGSGFGADGGDQEVVNEAIATRQELTDVNYPSDKS
notes: as for B1
B2 showed a Km [2] of 14 µM.
